The test has as its target T1, recombinant D III domain of the WNV structural E glycoprotein (West Nile virus; strain of the …, UniProt Q9Q6P4).
T1 construct: also called recombinant DIII protein; recombinant analog of D III of WNV glycoprotein E
The experiment in a line: BLI; Octet K2, NTA biosensors loaded with recombinant DIII (20 ug/mL); antibodies in solution at five concentrations from 10.4 to 166.4 nM; PBS; global fit of the 1:1 model; triplicate. Conditions: both partners purified. On the technique in general: Biolayer interferometry detects binding as a change in optical thickness at a sensor tip.

T1 sequence (Q9Q6P4 whole entry, looked up, the tested form may be a part): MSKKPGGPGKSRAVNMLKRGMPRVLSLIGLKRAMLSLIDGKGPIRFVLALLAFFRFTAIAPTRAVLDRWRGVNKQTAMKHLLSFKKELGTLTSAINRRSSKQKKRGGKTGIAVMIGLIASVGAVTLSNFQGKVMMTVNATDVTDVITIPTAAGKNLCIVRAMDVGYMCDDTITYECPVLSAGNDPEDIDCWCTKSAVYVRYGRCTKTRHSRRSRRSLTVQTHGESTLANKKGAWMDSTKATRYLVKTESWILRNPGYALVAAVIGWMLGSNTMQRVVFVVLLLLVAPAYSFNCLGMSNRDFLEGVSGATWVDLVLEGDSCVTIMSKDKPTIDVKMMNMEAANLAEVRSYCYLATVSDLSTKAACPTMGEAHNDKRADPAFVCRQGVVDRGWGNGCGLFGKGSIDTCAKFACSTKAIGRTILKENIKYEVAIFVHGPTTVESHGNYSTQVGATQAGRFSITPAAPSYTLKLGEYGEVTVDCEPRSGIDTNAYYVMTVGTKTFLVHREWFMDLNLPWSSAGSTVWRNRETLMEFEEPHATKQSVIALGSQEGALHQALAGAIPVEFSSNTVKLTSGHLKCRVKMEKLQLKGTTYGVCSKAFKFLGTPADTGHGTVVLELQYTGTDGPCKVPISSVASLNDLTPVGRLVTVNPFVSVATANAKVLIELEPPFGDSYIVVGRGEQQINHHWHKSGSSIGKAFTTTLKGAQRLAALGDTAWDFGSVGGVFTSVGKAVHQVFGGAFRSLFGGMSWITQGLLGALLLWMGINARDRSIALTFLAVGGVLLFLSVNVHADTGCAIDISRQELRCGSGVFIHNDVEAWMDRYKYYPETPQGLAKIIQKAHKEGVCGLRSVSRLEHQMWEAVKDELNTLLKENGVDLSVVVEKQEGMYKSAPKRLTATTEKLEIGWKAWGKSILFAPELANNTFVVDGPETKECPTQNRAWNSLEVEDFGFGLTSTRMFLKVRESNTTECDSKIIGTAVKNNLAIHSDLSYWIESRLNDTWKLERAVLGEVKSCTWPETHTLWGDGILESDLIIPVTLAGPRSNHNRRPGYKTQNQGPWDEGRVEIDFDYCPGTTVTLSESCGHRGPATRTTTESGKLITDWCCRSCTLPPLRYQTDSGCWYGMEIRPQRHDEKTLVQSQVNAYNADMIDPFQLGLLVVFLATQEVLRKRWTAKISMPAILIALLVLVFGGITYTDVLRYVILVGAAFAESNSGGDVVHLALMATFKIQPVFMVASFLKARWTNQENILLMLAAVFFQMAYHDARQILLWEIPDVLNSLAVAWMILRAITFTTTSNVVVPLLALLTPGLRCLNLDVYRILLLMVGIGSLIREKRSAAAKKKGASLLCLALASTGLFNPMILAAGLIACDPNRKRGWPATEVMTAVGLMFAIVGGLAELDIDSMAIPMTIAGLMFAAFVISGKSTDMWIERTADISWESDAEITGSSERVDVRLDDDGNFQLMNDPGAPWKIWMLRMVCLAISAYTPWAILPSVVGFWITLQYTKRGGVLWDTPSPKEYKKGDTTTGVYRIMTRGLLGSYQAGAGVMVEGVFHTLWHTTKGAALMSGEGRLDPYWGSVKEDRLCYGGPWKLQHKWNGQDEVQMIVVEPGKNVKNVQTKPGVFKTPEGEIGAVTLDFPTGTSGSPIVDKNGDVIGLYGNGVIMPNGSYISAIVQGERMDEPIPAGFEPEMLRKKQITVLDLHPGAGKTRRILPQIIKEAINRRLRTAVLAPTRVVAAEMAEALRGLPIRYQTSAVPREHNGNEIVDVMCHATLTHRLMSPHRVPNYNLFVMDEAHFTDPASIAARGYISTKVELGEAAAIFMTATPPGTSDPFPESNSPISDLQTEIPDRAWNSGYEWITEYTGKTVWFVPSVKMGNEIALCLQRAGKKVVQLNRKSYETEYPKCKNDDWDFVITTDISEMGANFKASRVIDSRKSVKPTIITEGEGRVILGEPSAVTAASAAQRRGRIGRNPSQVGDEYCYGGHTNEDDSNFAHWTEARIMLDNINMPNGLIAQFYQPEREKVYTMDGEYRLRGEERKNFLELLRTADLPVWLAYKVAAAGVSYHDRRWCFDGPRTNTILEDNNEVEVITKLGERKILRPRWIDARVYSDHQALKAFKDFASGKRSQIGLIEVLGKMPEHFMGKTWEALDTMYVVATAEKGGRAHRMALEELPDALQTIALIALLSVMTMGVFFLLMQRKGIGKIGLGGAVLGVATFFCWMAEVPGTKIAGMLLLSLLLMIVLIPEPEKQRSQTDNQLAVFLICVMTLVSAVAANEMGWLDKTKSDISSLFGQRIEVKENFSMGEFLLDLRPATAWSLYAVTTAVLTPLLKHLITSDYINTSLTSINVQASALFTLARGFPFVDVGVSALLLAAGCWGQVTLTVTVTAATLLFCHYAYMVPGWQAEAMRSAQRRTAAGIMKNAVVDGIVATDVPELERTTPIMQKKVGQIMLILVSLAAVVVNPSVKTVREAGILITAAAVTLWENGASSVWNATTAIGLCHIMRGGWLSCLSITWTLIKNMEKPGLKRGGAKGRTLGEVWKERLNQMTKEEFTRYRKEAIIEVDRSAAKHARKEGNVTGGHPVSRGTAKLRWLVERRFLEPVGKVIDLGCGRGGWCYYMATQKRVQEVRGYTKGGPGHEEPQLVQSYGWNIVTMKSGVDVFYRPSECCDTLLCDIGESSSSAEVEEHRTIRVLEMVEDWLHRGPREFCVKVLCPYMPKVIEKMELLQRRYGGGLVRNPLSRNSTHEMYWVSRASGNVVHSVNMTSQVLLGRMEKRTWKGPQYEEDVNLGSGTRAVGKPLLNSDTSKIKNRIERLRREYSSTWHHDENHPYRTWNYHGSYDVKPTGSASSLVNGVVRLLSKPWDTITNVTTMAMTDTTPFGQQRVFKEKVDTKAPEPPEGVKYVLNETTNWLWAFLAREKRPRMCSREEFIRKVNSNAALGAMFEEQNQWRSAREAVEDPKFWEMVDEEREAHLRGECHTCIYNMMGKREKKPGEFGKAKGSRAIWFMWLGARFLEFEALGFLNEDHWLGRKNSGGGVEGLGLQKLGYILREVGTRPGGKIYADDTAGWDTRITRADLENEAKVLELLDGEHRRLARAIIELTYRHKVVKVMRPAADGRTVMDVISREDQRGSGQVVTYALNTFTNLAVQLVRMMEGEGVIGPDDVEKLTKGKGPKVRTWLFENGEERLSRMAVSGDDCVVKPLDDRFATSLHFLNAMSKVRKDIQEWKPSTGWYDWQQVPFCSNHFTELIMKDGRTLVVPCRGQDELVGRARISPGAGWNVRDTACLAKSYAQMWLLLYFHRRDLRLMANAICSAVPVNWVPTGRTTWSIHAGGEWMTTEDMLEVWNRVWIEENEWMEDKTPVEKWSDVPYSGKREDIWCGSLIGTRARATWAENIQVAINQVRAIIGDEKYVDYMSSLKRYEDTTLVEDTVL

B1: recombinant chimeric monoclonal antibody (mAb) 900, variant V4 (scFv-Fc, M252Y/S254T/T256E and H433K/N434F in the human IgG1 Fc) (antibody, V domains shown)
VH: EVQLQQSGAELVKPGASVKLSCKASGYIFTNYDINWVRQRPEQGLEWIGWIFPEDGRTKNNEKFKGKATLTTDKSSSTAYMQLSRLTSEDSAVYFCARGGGYGNYFDYWGQGTLVTVS
VL: DIVMTQAHKFMSTSVGDRVSITCKASQDVSTAVAWYQQKPGQSPKVLIYWASTRHTGVHDRFTGSGSGTDYTLTISSVQAEDLALYYCQQHYSNPLTFGAGTKLELK
Broadly, the Kd is the constant that tells how readily two partners part at equilibrium. B1: the Kd is ~2.3 nM.
